Assay [1] deals with T1, human galectin-10-His (recombinant human galectin-10 with TEV-cleavable N-terminal His-tag) (human).
T1 construct: SEC-MALLS: dimer in solution; also called Gal10-His; humanGal10-His
T1 chain: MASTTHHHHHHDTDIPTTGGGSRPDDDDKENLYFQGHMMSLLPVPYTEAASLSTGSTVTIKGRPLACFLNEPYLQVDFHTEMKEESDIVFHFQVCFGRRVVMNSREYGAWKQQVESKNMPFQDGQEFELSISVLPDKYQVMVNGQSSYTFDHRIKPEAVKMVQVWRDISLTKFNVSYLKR
Nature of the assay: BLI tandem on galectin-10-His; competitor: saturating 2C07 mIgG1 (10 ug/mL). The protocol:
(§1) In order to identify the galectin-10 binding sites of the different clones, an epitope mapping method (TANDEM), using the BLI technology, was established. Briefly, the galectin-10-His was captured on anti-HIS 1K sensor tips, before incubation with an excess of one antibody (called the “saturating” antibody) then directly transferred to a solution containing the “competitor” antibody at a suboptimal concentration. If the “saturating” and the competitor antibody bind to the same binding sites, no binding of “competitor” will be detected (expressed in nm shift).

The target in assay [2] is T1, human galectin-10-His (recombinant …). The assay can be described thus: BLI tandem on galectin-10-His; competitor: saturating 6A08 mIgG1 (10 ug/mL). The protocol: as §1
Assay [3] has the same target. Nature of the assay: ELISA, mouse IgG1 on coated galectin-10-His (0.2 ug/mL). The protocol:
In a similar setup to that used during the characterization of the scFv-human Fc molecules, the relative binding affinities of the 10 mouse IgG1 antibodies were analyzed by ELISA. A Maxisorp plate was coated overnight with 0.2 μg/mL of galectin-10-His. Then a serial dilution of each clone (from 100 nM, dilution 1/4, 12 points of dilutions) was incubated on coated galectin-10. After several washing steps, detection of the bound mouse IgG1 was carried out with an anti-mouse Fc-HRP antibody. Absorbance was measured at 450 nm (reference at 620 nm) with Tecan instrument. A mouse IgG1 isotype control was used as negative control. A polyclonal anti-galectin-10 antibody was used as positive control for the coating of galectin-10. The raw data (OD values) were plotted on GraphPad Prism 7.01. The EC50 values for each antibody, calculated with a non-linear regression (log(agonist) vs. response Variable slope (four parameters)), are reported in Table 7 below.
(An ELISA detects its analyte on a solid surface through an enzyme-linked reagent.)

Assay [4] concerns the target T2, TEV-cleaved wild-type recombinant human galectin-10 (soluble, in Fab complexes, or as recombinant galectin-10 … (human, UniProt Q05315 1-142)).
T2 sequence: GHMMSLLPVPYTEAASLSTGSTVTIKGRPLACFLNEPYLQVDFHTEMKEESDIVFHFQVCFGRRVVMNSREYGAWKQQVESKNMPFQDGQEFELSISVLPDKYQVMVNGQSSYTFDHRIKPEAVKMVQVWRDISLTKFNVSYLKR
The assay can be described thus: cell-based or functional assay.

In assay [5] the target is T1, human galectin-10-His (recombinant …). The assay can be described thus: SPR Biacore T3000, mouse IgG1 captured by anti-mouse Fc, galectin-10-His as analyte. The protocol: The binding capacity of the mouse IgG1 antibodies to galectin-10 was analyzed on Biacore T3000. For this purpose, a capture approach was set up. A CM5 Chip was coated with polyclonal anti-mouse Fc at 8000 RU, then a fixed concentration of the mouse IgG1 antibody panel (1.5 μg/mL), diluted in HBS-EP pH7.4, was captured to reach a binding signal around 150 RU. Finally, a serial dilution of galectin-10-His (serial dilution, 1 over 2 from 5 μg/mL) diluted in HBS-EP pH7.4 was injected. Raw data were analyzed via BIA evaluation software with a blank subtraction (4-3). The kd/KD and Rmax of each mAb to galectin-10-His was determined using the Fit Kinetics simultaneous ka/kd/Binding with mass transfer/Local Rmax on BIA evaluation software.
(In general: In SPR one partner is held on a chip, and binding of the other changes the refractive index at the surface.)

For assay [6] the target is unchanged. The assay can be described thus: BLI tandem on galectin-10-His; competitor: saturating 6F06 mIgG1 (10 ug/mL). The protocol: as §1
Assay [7] shares this target. Nature of the assay: BLI tandem on galectin-10-His; competitor: saturating 6E10 mIgG1 (10 ug/mL). As for the experimental part: as §1
Assay [8] shares this target. The assay can be described thus: BLI tandem on galectin-10-His; competitor: saturating 4E08 mIgG1 (10 ug/mL). As for the experimental part: as §1
The target is the same in assay [9]. The assay can be described thus: BLI tandem on galectin-10-His; competitor: saturating 2F09 mIgG1 (10 ug/mL). The protocol:
as §1

For assay [10] the target is unchanged. The assay can be described thus: BLI tandem on galectin-10-His; competitor: saturating 1C09 mIgG1 (10 ug/mL). As for the experimental part:
as §1

The target is the same in assay [11]. The assay can be described thus: BLI tandem on galectin-10-His; competitor: saturating 6B06 mIgG1 (10 ug/mL). As for the experimental part:
as §1

Assay [12] shares this target. The assay can be described thus: BLI tandem on galectin-10-His; competitor: saturating 1D11 mIgG1 (10 ug/mL). The protocol:
as §1

For assay [13] the target is unchanged. The assay can be described thus: BLI tandem on galectin-10-His; competitor: saturating 6A05 mIgG1 (10 ug/mL). The protocol:
as §1

Assay [14] shares this target. Nature of the assay: BLI tandem on galectin-10-His; isotype control as saturating antibody (10 ug/mL). The protocol: as §1

Numbering of substitutions follows the chain as printed.

B1: 2F09 mouse IgG1 (antibody, V domains shown)
VH: QVQVQESGPGLVKPSQTLSLTCTVSGGSITTNYFYWSWIRQSPGKGLEWIGAIAYSGRTYYSPSLKSRTSISRDTSNNQFTLQLSSVTPEDTAVYYCARGPKGLASYYDYWGQGTQVTVSS
VL: SSALTQPSAVSVSLGQTARITCQGGNFGYYYVSWYQQKPGQAPVLVIYRDSGRPSGIPERFSGSSSGDTATLTISGAQAEDEADYYCQSGSSSDNTVFGGGTHLTVL
notes: VH on mouse IgG1 heavy chain constant domains (CH1-CH2-CH3), VL on mouse lambda light chain constant domain; also called 2F09 mIgG1
As to B1, the “binding signal (nm)” value amounted to 0.05 nm in [1]; 0.07 nm in [2]; 0.06 nm in assay [6]; 0.03 nm in [7]; 0.1 nm in [8]; 0.03 nm in [9]. Besides, the “binding signal (nm)” value in assay [10] came to 0.04 nm; in assay [11] it was 0.03 nm; in [12], 0.12 nm; in assay [13], 0.12 nm; in assay [14] it was 1.14 nm. Moreover, the Bmax in assay [3] came out at 3.29 OD. For the same molecule, the EC50 in assay [3] came to 0.05 nM. Also, the “100% Solubilization of CLC (Conc uM)” value in assay [4] amounted to 10.7 µM. For the same molecule, the Kd in assay [5] stood at 0.3 nM. In addition, in assay [5], the koff stood at 0.00034 s⁻¹.

B2: 6A05 mouse IgG1 (antibody, V domains shown)
VH: EVQLVESGGGLVQPGGSLRLSCAASGFTFSSYAMSWVRQAPGKGLEWVSAINSGGGWTSYVDSVKGRFTISRDNAKNTLYLQMDSLKPEDTAVYYCTKYSGPELNTQYGMDYWGKGTLVTVSS
VL: B1 VL with S1N, S2F, A3M, Y29S, V32A
notes: also called 6A05 mIgG1
Consider B2, for which the “binding signal (nm)” value is 0.01 nm in [1]; 0 nm in assay [2]; 0.02 nm in assay [6]; -0.03 nm in [7]; -0.03 nm in assay [8]; 0.01 nm in assay [9]. The “binding signal (nm)” value in [10] was found to be 0 nm; in assay [11] it was 0 nm; in assay [12], 0.04 nm; in assay [13] it was 0.05 nm; in [14], 1.02 nm. In addition, the Bmax in assay [3] was 1.74 OD. Further, the concentration for a half-maximal effect (EC50) in assay [3] was 0.07 nM. Moreover, the “100% Solubilization of CLC (Conc uM)” value in assay [4] came out at 10.1 µM. Moreover, in assay [5], the equilibrium dissociation constant (Kd) worked out at 0.6 nM. In assay [5], the off-rate (koff) is 0.00483 s⁻¹.

The term EC50 denotes the midpoint of the concentration-response curve. What is called Kd is the concentration at which binding is half-saturated. A word on the koff: it is the first-order rate constant of dissociation.

The values are drawn from patent US20190367619A1 (ARGENX, published 2019).
